Test: yeast display, Sf9 membrane polyspecificity reagent, FACS + sequencing; frameworks hold sequencing errors
Outline: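 Galactose induction of a Saccharomyces cerevisiae BJ5465 synthetic nanobody display library ran 36–48 hours. The cells were then stained for 1 hour at 4 °C with 10% biotinylated, detergent-solubilized Sf9 membrane reagent, pulled down on streptavidin microbeads and FACS-sorted into low and high (top ~1%) gates on expression and reagent-binding fluorescence. Labels for polyreactivity follow the gate of origin.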

Sequence | polyreactivity (PSR sort gate)
QVQLVESGGCLVQAGGSLRLSCAASGSIFIWYAMGWYRQAPGKERELVASITYSAGRTYYADSVKGRFTISRDNAKNTVYLQMNSLKPEDTAVYYCAADSPYVYTLDSYGEGDYWGQGTQVTVSS | low polyreactivity
QVQLVESGGCLVQAGGSLRLSCAASGSIFKGYAMGWSRQAPGKERELVAAITIDGSTYYADSVKGRFTISRDNAKNTVYLQMNSLKPEDTAVYYCAAVYLWYGSWPLHFAAYDYWGQGTQVTVSS | low polyreactivity
QVQLVESGGCLVQAGGSLRLSCAASGSIFLFNAMGWYRQAPGKDRELVATISWSGVVLRTYADSVKGRFTISRDNAKNTVYLQMNSLKPEDTAVYNCAARDLAFFTEYGYWGQGTQVSVSS | high polyreactivity
QVQLVESGGCLVQAGGSLRLSCAASGSIFSKNTMGWSRQAPGKDRELVATISIGGGSTYYADSVKGRFTISRDNAKNTVYLQMNSLKPADSAVYYCNASLRRPFSLYYYWGQGTQVTVSS | high polyreactivity
QVQLVESGGCLVQAGGSLRLSCAASGSIFTTYAMGWYRQAPGKERELVAAISVSGSSTYYADSVKGRFTISRDNAKNTVYLQMNSLKPEDTAVYYCNKAFRSVRPRRRYDYWGQGTQVTVSS | low polyreactivity
QVQLVESGGCLVQAGGSLRLSCAASGSILRYYAMGWYRQAPGKERELVAAISRGGSTYYADSVKGRFTISRDNAKNTVYLQMNSLKPEDTAVYYCARLPLRYYFGYDYWGQGTQVTVSS | high polyreactivity
QVQLVESGGCLVQAGGSLRLSCAASGSTFPIYAMGWYRQAPGKERELVARITWNGGRTYYADSVKGRFTISRDNAKNTVYLQMNSLKPEDTAVYYCAAGKIGSYHYDYWGQGTQVTVSS | high polyreactivity
QVQLVESGGCLVQAGGSLRLSCAASGSTFTGYAMGWYRQAPGKEREFVATITKRGGRTYYADSVKGRFTISRDHAKNTVYLQMNSLKPEDTAVYYCARDQGKLVVPYDYWGQGTQVTVSS | high polyreactivity
QVQLVESGGCLVQAGGSLRLSCAASGSTFTLYAMGWYRPAPGKERELVAAIRRGGSTNYADSVKGRFTISRDNAKNTDYLQMNSLKPEDTAVYYCAADSYTSRSRYSGSGGYDYGGQGTQVTVSS | low polyreactivity
QVQLVESGGCLVQAGGSLRLSCAASGSTFVYYAMGWYRQAPGKESELVAAITSGGSTYYADSVKGRFTISRDNAKNTVYLQMNSLKPEDTAVYYCATDYTWFGYRYDYWGQGTQVTVSS | low polyreactivity
QVQLVESGGCLVQAGGSLRLSCAASGSTLYRYVMGWYRPAPGKESELVAAISWSGTNTYADSVKGRFTISRDNAKNTVYLQMNSLKPEDTAVYYSAAAGPGYNWGYRVYAIYDYWGQGSQVTVSS | high polyreactivity
QVQLVESGGCLVQAGGSLRLSCAASGSTSDIYARGWYSPAPGKEREFVAARSLTGGTTYYAASVKGRFTISCDNAKNTVYLQMNSLKPEDTAVYYCNADVGWWGYDDDYWGQGTQVTVSS | high polyreactivity
QVQLVESGGCLVQAGGSLRLSCAASGYIFDHYAMGCYRQAPGKERELVAAISRSAGSTYYADSVKGRFTISRDNAKNTVYLQMNSLKPEDTAVYYCNAVVAVRSWRKYEYWGQGTQVTVSS | high polyreactivity
QVQLVESGGCLVQAGGSLRLSCAASGYTFRYNAMGWYRQAHGKERELVATITRGGSTNYADSVKGRFTISRDNEKNTVYLLMYSLKPEDPAVYYCNKEAAPLGFVPSYYGRDYWRQGTQVTVSS | low polyreactivity
QVQLVESGGCLVQAGGSLRLSCAATGRTFHGYAMGWYRQAPGKERELVAAITSSGARTYYADSVKGRFTISRDNAKNTVYLQMNSLKPEDTAVYYCAKRGKQYRKMNYWGQGTQVTVSS | high polyreactivity
QVQLVESGGCLVQAGGSLRLSCAPSGSTFIPNPMGWYRQEPGKERELVAAISRRGGSTNYADSVKGRFTISRDNAKNTVFLQMNSVKPEDTAVYYCAAVSPRRYRYDYWGQGPQVTVSS | low polyreactivity
QVQLVESGGCLVQAGGSLRLSCASSGIIIRKYAMGWYRQQPGKERELVAAITTRGSRTYYADSVKGRFTISRDNAKNTVYLQMNSLKPEDTAVYYCASDRYTVRMDYWGQGTQVTVSS | high polyreactivity

From the nanobody polyreactivity screen of Harvey et al. (2022)
